Assay results published in PMC8387475, “Combined intermittent fasting and ERK inhibition enhance the anti-tumor effects of chemotherapy via the GSK3β-SIRT7 axis” (Nature Communications, 2021).

Target: T1, His-GSK3β (UniProt P49841 1-420)
T1 construct: GSK3β, recombinant protein of the GST pull-down; The reagents list a bought recombinant human GSK3β protein (active) (Abcam ab60863); also called recombinant His-GSK3β; source: recombinant
Experiment: pull-down; GST pull-down with recombinant GST-SIRT7 and His-GSK3β
Conditions: both partners purified

T1 sequence (P49841 whole entry): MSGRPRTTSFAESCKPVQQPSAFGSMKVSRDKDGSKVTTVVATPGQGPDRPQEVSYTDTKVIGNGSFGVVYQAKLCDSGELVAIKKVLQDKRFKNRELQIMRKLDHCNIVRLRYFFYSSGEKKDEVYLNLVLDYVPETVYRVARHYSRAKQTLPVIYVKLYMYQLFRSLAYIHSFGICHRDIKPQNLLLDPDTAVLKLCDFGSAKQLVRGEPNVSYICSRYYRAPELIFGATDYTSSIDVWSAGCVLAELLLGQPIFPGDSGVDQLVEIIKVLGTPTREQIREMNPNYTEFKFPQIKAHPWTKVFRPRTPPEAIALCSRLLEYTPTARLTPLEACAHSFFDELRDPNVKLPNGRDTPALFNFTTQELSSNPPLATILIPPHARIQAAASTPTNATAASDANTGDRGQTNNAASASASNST

B1: GST-SIRT7 (natural protein, human, UniProt Q9NRC8 1-400, looked up)
chain: MAAGGLSRSERKAAERVRRLREEQQRERLRQVSRILRKAAAERSAEEGRLLAESADLVTELQGRSRRREGLKRRQEEVCDDPEELRGKVRELASAVRNAKYLVVYTGAGISTAASIPDYRGPNGVWTLLQKGRSVSAADLSEAEPTLTHMSITRLHEQKLVQHVVSQNCDGLHLRSGLPRTAISELHGNMYIEVCTSCVPNREYVRVFDVTERTALHRHQTGRTCHKCGTQLRDTIVHFGERGTLGQPLNWEAATEAASRADTILCLGSSLKVLKKYPRLWCMTKPPSRRPKLYIVNLQWTPKDDWAALKLHGKCDDVMRLLMAELGLEIPAYSRWQDPIFSLATPLRAGEEGSHSRKSLCRSREEAPPGDRGAPLSSAPILGGWFGRGCTKRTKRKKVT
notes: SIRT7 cloned into pGEX-4T-3; also called GST-SIRT7-WT; recombinant GST-SIRT7; source: E. coli BL21, purified (glutathione agarose)
binding result: binds
